Patent publication US12678457B2, “Blood-brain barrier-penetrating nanotheranostics for acute and chronic neurodegenerative diseases and the like” (THE GOVERNING COUNCIL OF THE UNIVERSITY OF TORONTO, priority 2020, dated 2026)

Experiment: Pharmacokinetic study of GDNF-TPN (human GDNF ELISA)
Format: in vivo, healthy CD-1 mice
Settings: after i.v. injection
Method: Healthy CD-1 mice were randomly allocated into three treatment groups and received a single i. v. injection of GDNF-TPN, Free GDNF or saline at a matched dose of 15 mg GDNF/kg. At 0.5, 1, 2, 4, 6 and 24 hours after injection, whole blood was collected in heparinized tubes from ketamine anesthetized mice by cardiac puncture. Following perfusion with ice-cold saline via the left ventricle, the brains and organs were harvested, rinsed in PBS, weighted, snap-frozen and stored at −80° C. for further analysis. The mouse tissues were homogenized with RIPA buffer containing protease inhibitors and the GDNF was assayed using Human GDNF Elisa kit (Abcam, CA) under manufacture's protocol. […] Free GDNF was quickly eliminated from the blood within 2 hours after injection.

B1: glial cell line-derived neurotrophic factor (protein, UniProt P39905 78-211, looked up)
Glial cell line-derived …: SPDKQMAVLPRRERNRQAAAANPENSRGKGRRGQRGKNRGCVLTAIHLNVTDLGLGYETKEELIFRYCSGSCDAAETTYDKILKNLSRNRRLVSDKVGQACCRPIAFDDDLSFLDDNLVYHILRKHSAKRCGCI
notes: Human GDNF, free protein solution used as comparator
- Time to elimination from the blood: ≤ 2 h
